Our source for the Kd and cell viability (MTT) of differentiated SH-SY5Y cells treated with 20 µM aggregated Aβ25–35 together with YCWS values is article PMC12562681, “Targeting a Tau Kinase Cdk5, Cyclin-Dependent Kinase: A Blood-Based Diagnostic Marker and Therapeutic Earmark for Alzheimer’s Disease” (Biomolecules, 2025).

Test [1] has as its target recombinant human Cdk5 (Cyclin-Dependent Kinase 5) (human) (UniProt Q00535). The test can be described thus: SPR; recombinant Cdk5 immobilised on a Ni-NTA sensor chip (NiCl2 solution, then the protein); peptide YCWS passed over at 0.4, 0.6 and 1 µM; KA and KD calculated with BIA evaluation 3.0 software.
Test [2] has the same target.

The term Kd denotes the equilibrium constant for the complex coming apart. With peptide YCWS, the Kd in test [1] was 3.94 nM. Moreover, the cell viability (MTT) of differentiated SH-SY5Y cells treated with 20 µM aggregated Aβ25–35 together with YCWS at 2, 5, 10, 15 and 20 µM (77.65% without the peptide) in test [2] was determined as 98.5%.
